Target: T1, ASIC1a (human (endogenous in U251 MG, A172, A549)) (UniProt P78348)
T1 sequence: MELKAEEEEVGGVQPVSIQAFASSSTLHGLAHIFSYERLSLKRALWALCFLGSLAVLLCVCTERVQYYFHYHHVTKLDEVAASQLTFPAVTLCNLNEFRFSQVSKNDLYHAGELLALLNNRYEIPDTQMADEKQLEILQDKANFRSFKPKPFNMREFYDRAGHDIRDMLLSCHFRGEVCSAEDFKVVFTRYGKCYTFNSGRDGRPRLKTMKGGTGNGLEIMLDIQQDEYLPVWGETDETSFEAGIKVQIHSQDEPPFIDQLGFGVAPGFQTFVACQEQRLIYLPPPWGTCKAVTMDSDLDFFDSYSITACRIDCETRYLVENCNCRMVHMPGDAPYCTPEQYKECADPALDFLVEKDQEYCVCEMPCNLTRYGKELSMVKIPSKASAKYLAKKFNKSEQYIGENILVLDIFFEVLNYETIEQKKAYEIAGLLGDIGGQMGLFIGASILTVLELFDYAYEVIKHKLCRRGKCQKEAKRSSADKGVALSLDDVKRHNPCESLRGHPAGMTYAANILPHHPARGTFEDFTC

B1: recombinant mambalgin-2 (peptide)
chain: LKCFQHGKVVTCHRDMKFCYHNTGMPFRNLKLILQGCSSSCSETENNKCCSTDRCNK
Q: Which growth of A172 glioma cells expressing the ASIC1a subunit, EC50 does the source give for B1 here?
A: 10 nM

Q: What about the growth of A549 lung carcinoma cells expressing the ASIC1a subunit, EC50 of the same binder?
A: 8 nM

Q: What about the growth of U251 MG glioma cells expressing the ASIC1a subunit, EC50 of the same binder?
A: 0.9 nM

— publication PMC7138811
